Measurements as given in patent publication US20260176358A1 (JIANGSU HENGRUI PHARMACEUTICALS, published 2026).
Substitutions are numbered along the chain they refer to. Where two headings read alike, the source gives them in different places. Each block holds one binder with its values, some of them ahead of it.

Columns and labels:
[1] = biological target: CGRP; experiment: cell-based or functional assay
[2] = biological target: T1, rat CGRP (rat, UniProt P01256 83-119); experiment: SPR, Biacore 8K, antibody captured on Protein A chip, 1:1 model
T1 peptide (looked up): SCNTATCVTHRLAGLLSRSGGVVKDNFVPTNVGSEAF
Description: A Protein A biosensor chip was used to affinity-capture IgG, and a molecule sample was then allowed to flow through the surface of the chip. Reaction signals were detected in real time using a Biacore 8K system to obtain association and dissociation curves. After the dissociation in each experimental cycle was complete, the biosensor chip was washed and regenerated 3 times with 50 mM NaOH. Data fitting was performed using a 1:1 model.

[3] = biological target: T2, human CGRP (human, UniProt P06881 83-119); experiment: ELISA, coated CGRP
T2 peptide (looked up): T1 peptide (looked up) with S1A, N3D, D25N, E35K
Description: (§1) In this test example, the abilities of the chimeric antibodies and humanized antibodies of C1 #, C9 #, C21 #, and C28 #to bind to human CGRP and rat CGRP were assessed using ELISAs. Plates were coated with […] human CGRP and rat CGRP, respectively, and blocked, and the antibodies, serially diluted, were then added. The plates were incubated for 1 h and washed, and a horseradish peroxidase-labeled anti-human Fc secondary antibody was then added. After incubation, color development was performed. […] The plates were incubated for 1 h and washed, and the antibodies, serially diluted, were then added. The plates were incubated for 1 h and washed, and a horseradish peroxidase-labeled streptavidin secondary antibody was then added. After incubation, color development was performed.

[4] = biological target: T1, rat CGRP; experiment: ELISA, coated CGRP
Description: as §1

[5] = biological target: T2, human CGRP; experiment: SPR, Biacore 8K, 25 C, biotinylated antibody on SA chip, 1:1 model
Description: First, the test antibodies ([…] for the mAbs and 4 μg/mL for the diabodies), biotinylated (indicated by Biotin-), were each coupled onto an SA biosensor chip. Then samples of the antigen human CGRP were sequentially injected in ascending order for 180 s, followed by dissociation. After the test was finished, fitting was performed using a 1:1 binding model.

[6] = biological target: CGRP; experiment: cell-based or functional assay; remark: listed apart in the source
[7] = biological target: T3, PACAP38 (UniProt P18509 132-169, biotinylated in the ELISAs); experiment: cell-based or functional assay
T3 peptide (looked up): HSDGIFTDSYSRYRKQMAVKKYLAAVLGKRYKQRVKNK

[8] = biological target: T3, PACAP38; experiment: competition ELISA, biotinylated PACAP38 to coated VPAC1-Fc
Description: (§2) The plates were incubated for 1 h and washed, and a horseradish peroxidase-labeled streptavidin secondary antibody was then added. After incubation, color development was performed.

[9] = biological target: T3, PACAP38; experiment: competition ELISA, biotinylated PACAP38 to coated VPAC2-Fc
Description: as §2

[10] = biological target: T3, PACAP38; experiment: competition ELISA, biotinylated PACAP38 to coated PAC1-Fc
Description: as §2

[11] = biological target: hIL5 (human, UniProt P05113 20-134); experiment: method of Test Example 4 of WO2021139758
[12] = biological target: hTSLP (human, UniProt Q969D9 29-159); experiment: method of Test Example 4 of WO2021139758

IC50, inhibition of cAMP production in SK-N-MC cells [1]: 1.98 nM
Kd [2]: 0.103 nM
koff [2]: 0.000232 s⁻¹
kon [2]: 2.25e+06 M⁻¹ s⁻¹
EC50 [3]: 2.3 nM
EC50 [4]: 4.26 nM
Kd [5]: 0.00381 nM
koff [5]: 1.92e-05 s⁻¹
kon [5]: 5.04e+06 M⁻¹ s⁻¹
IC50, inhibition of cAMP production in SK-N-MC cells [6]: 1.25 nM
B1: C21H2L1 (antibody, human IgG1, kappa, V domains shown)
VH: EVQLVQSGAEVKKPGASVKVSCKASGYTFTDYYMNWVRQAPGQRLEWIGDINPNQGGTNYNQKFKGRATLTVDKSASTAYMELSSLRSEDTAVYYCASIIIVPNYFDYWGQGTTVTVSS
VL: DIQMTQSPSSLSASVGDRVTITCKASQNVDTNVAWFQQKPGKAPKSLIYSASYRYSGVPSRFSGSGSGTDFTLTISSLQPEDFATYYCQQYNNYPYTFGGGTKVEIKR
notes: also called Biotin-C21H2L1

IC50, inhibition of cAMP production in SK-N-MC cells [1]: 1.61 nM
Kd [2]: 0.0674 nM
koff [2]: 0.000139 s⁻¹
kon [2]: 2.06e+06 M⁻¹ s⁻¹
EC50 [3]: 1.26 nM
EC50 [4]: 5.29 nM
Kd [5]: 0.00479 nM
koff [5]: 2.41e-05 s⁻¹
kon [5]: 5.03e+06 M⁻¹ s⁻¹
IC50, inhibition of cAMP production in SK-N-MC cells [6]: 2.49 nM
B2: C28H6L1 (antibody, human IgG1, kappa, V domains shown)
VH: B1 VH with I48M, Q55T, G57V, N59T, A68V, L70I, N104D
VL: B1 VL with L11V, D30G, T31S, F36Y, A43S, S46A, N93S
notes: also called Biotin-C28H6L1

IC50, inhibition of cAMP production in SH-SY5Y cells [7]: 1.79 nM
IC50 [8]: 0.53 nM
IC50 [9]: 0.61 nM
IC50 [10]: 0.76 nM
B3: P96H1L1 (antibody, human IgG1, kappa, V domains shown)
VH: EVQLVQSGAEVKKPGATVKISCKASGFNIKDYYMHWVQQAPGKGLEWMGWIDPENDNTLYDPKFQDRVTITTDTSTNTAYMELSSLRSEDTAVYYCVFGVMTTVEGDFDYWGQGTTVTVSS
VL: ETVVTQEPSLTVSPGGTVTLTCRSSSGTVTTSNYANWVQQKPGQAFRGLIGGTNNRAPGAPARFSGSLLGGKAALTLSGVQPEDEAEYYCALWYSNHWVFGGGTKLTVLR

IC50, inhibition of cAMP production in SH-SY5Y cells [7]: 8.26 nM
IC50 [8]: 0.53 nM
IC50 [9]: 0.68 nM
IC50 [10]: 0.83 nM
B4: P96#-CHI (antibody, human IgG1, kappa, V domains shown)
VH: EVQLQQSGADLVRPGALVKLSCKASGFNIKDYYMHWVKQRPEQGLEWIGWIDPENGNTLYDPKFQDKASITTDTSSNTAYLQLSSLTSEDTAVYYCVFGVMTTVEGDFDYWGQGTALTVSS
VL: QAVVTQESALTTSPGETVTLTCRSSSGTVTTSNYANWVQEKPDHLFTGLIGGTNNRAPGAPARFSGSLIGDKAALTITGAQTEDEAIYFCALWYSNHWVFGGGTKLTVLR
notes: chimeric: murine variable regions fused to human constant regions; also called P96#-CH1

EC50 [11]: 17.4 nM
EC50 [12]: 3.23 nM
B5: HJ-3 (bispecific antibody)
chain 1: not shown
chain 2: DIQMTQSPSSVSASVGDRVTITCRASQDIANYLSWYQQKPGKSPKLLIYGTSNLEVGVPSRFSGSRSGTDFTLTISSLQPEDFATYYCLQDKEFPRTFGGGTKVEIKGGGGSSGAPRFLTRPLAFVVSVGKDATLSSQIVGNPTPQVSWEKDKQPVTAGARFRLAQDGDLYRLKILDLQLSDSGQYVSRARNAIGEAFACLGLQVDAEA
chain 3: EVQLVQSGAEVKKPGSSVKVSCKASGYTFSNYLIEWVRQAPGQGLEWIGVIDPGVGDTNYNENFKGRATLTADKSTSTAYIELSSLRSEDTAVYYCAREDNTGTAFDYWGQGTTVTVSSASTKGPSVFPLAPSSKSTSGGTAALGCLVKDYFPEPVTVSWNSGALTSGVHTFPAVLQSSGLYSLSSVVTVPSSSLGTQTYICNVNHKPSNTKVDKKVEPKSCDKTHTCPPCPAPEAAGGPSVFLFPPKPKDTLMISRTPEVTCVVVDVSHEDPEVKFNWYVDGVEVHNAKTKPREEQYNSTYRVVSVLTVLHQDWLNGKEYKCKVSNKALPAPIEKTISKAKGQPREPQVCTLPPSREEMTKNQVSLSCAVKGFYPSDIAVEWESNGQPENNYKTTPPVLDSDGSFFLVSKLTVDKSRWQQGNVFSCSVMHEALHNHYTQKSLSLSPGKDYKDDDDK
chain 4: SIVMTQTPLSLSVTPGQPASISCKASQSVSSDVTWYLQKPGQSPQLLIYYVSEHYTGVPDRFSGSGYGTDFTLKISRVEAEDVGVYYCQQHHRFPLTFGQGTKLEIKRTVAAPSVFIFPPSDEQLKSGTASVVCLLNNFYPREAKVQWKVDNALQSGNSQESVTEQDSKDSTYSLSSTLTLSKADYEKHKVYACEVTHQGLSSPVTKSFNRGEC

EC50 [11]: 17.7 nM
EC50 [12]: 2.18 nM
B6: HJ-7 (bispecific antibody)
chain 1: not shown
chain 2: B5 chain 2 with L123K, F125S, S137C, T144F, A160V, S188C, I194H
chain 3: EVQLVQSGAEVKKPGSSVKVSCKASGYTFSNYLIEWVRQAPGQGLEWIGVIDPGVGDTNYNENFKGRATLTADKSTSTAYIELSSLRSEDTAVYYCAREDNTGTAFDYWGQGTTVTVSSASTKGPSVFPLAPSSKSTSGGTAALGCLVKDYFPEPVTVSWNSGALTSGVHTFPAVLQSSGLYSLSSVVTVPSSSLGTQTYICNVNHKPSNTKVDKKVEPKSCDKTHTCPPCPAPEAAGGPSVFLFPPKPKDTLMISRTPEVTCVVVDVSHEDPEVKFNWYVDGVEVHNAKTKPREEQYNSTYRVVSVLTVLHQDWLNGKEYKCKVSNKALPAPIEKTISKAKGQPREPQVCTLPPSREEMTKNQVSLSCAVKGFYPSDIAVEWESNGQPENNYKTTPPVLDSDGSFFLVSKLTVDKSRWQQGNVFSCSVMHEALHNHYTQKSLSLSPGK
chain 4: B5 chain 4

EC50 [11]: 9.46 nM
EC50 [12]: 3 nM
B7: HJ-11 (bispecific antibody)
chain 1: not shown
chain 2: DIQMTQSPSSVSASVGDRVTITCRASQDIANYLSWYQQKPGKSPKLLIYGTSNLEVGVPSRFSGSRSGTDFTLTISSLQPEDFATYYCLQDKEFPRTFGGGTKVEIKRTVASSGCPRFLTRPKASVVSVGKDATLSCQIVGNPFPQVSWEKDKQPVTAGVRFRLAQDGDLYRLKILDLQLSDSGQYVCRARNAHGEAFACLGLQVDAEA
chain 3: B6 chain 3
chain 4: B5 chain 4

EC50 [11]: 20.8 nM
EC50 [12]: 3.17 nM
B8: HJ-10 (bispecific antibody)
chain 1: not shown
chain 2: B7 chain 2 with C115A
chain 3: B6 chain 3
chain 4: B5 chain 4

EC50 [11]: 18.7 nM
EC50 [12]: 3.33 nM
B9: HJ-8 (bispecific antibody)
chain 1: not shown
chain 2: B7 chain 2 with C115A, C137S, C188S
chain 3: B6 chain 3
chain 4: B5 chain 4

EC50 [11]: 16 nM
EC50 [12]: 2.64 nM
B10: HJ-5 (bispecific antibody)
chain 1: not shown
chain 2: B5 chain 2 with L123K, F125S, T144F, A160V, I194H
chain 3: B6 chain 3
chain 4: B5 chain 4

EC50 [11]: 37 nM
EC50 [12]: 2.88 nM
B11: HJ-6 (bispecific antibody)
chain 1: not shown
chain 2: B5 chain 2 with R121C, L123K, F125S, T144F, A160V, I194H
chain 3: B6 chain 3
chain 4: B5 chain 4

EC50 [11]: 10.9 nM
EC50 [12]: 3.18 nM
B12: HJ-9 (bispecific antibody)
chain 1: not shown
chain 2: B7 chain 2 with C115A, R121C, C137S, C188S
chain 3: B6 chain 3
chain 4: B5 chain 4
